From article PMC9241776, “Azole Resistance-Associated Regulatory Motifs within the Promoter of cyp51A in Aspergillus fumigatus”

Biological target: T1, AtrR (Zn2Cys6 cluster and coiled-coil) (Aspergillus fumigatus, UniProt Q4WI89 50-160)
T1 sequence: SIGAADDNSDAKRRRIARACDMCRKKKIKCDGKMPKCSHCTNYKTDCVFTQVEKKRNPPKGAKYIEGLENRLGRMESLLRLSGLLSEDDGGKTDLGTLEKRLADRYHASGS
Assay: SPR; largely unaffected; SPR as in earlier publications; binding buffer and temperature not in the material (SEC buffer for AtrR and SrbA: 20 mM HEPES, 150 mM NaCl); 1:1 model with mass transport
Conditions: protein: recombinant; tags: N-terminal MBP, removed by TEV; chain copies: 2

B1: Pcyp51A SrbA* (dsDNA)
DNA 1: TCTAGAATTCCGAAGTCCGGATGTGTGCTGAGCCGAATGAA
DNA 2: TTCATTCGGCTCAGCACACATCCGGACTTCGGAATTCTAGA
B1: binds.
